In US20230303654A1 (CITY OF HOPE, published 2023) one finds EC50 data, which are given here for 24 molecules.

B1: Anti-spike RBD Ab37 scFv (scFv)
scFv: ELMLTQPPSVSVAPGQTARITCGGNNIGSKSVHWYQQKPGQAPVLVVYDDSDRPSGIPERFSGSNSGNTATLTISRVEAGDEADYYCQVWDNTLLFGGGTELTVLGGGSSRSSGVQLVESGGGLVQPGGSLRLSCSASGFTFSSYAMHWVRQAPGKGLEYVSGISSNGGGTHYADSVKGRFSISRDNSKNTLYLQMSSLRAEDTAVYYCVKDDSGSYFSLFDHWGQGTLVTVSSASTKGPSV
B2: Anti-spike RBD Ab27 scFv (scFv)
scFv: ELQMTQSPSSLSASVGDRVTITCRASQSISSYLNWYQQKPGKAPKLLIYAASSLQSGVPSRFSGSGSGTDFTLTISSLQPEDFATYYCQQANSFPFTFGPGTKVDIKGGSSRSSQVQLVQSGAEVKKPGASVKVSCKASGYTFTSYGISWVRQAPGQGLEWMGWVNPNGGHTGYAQKFQGRVTMTRHTATNTVYMELSSLTSDDTAVYYCARGKGYYYGMDVWGQGTTVLVSSASTKGPSV
B3: Anti-spike RBD Ab39 scFv (scFv)
scFv: ELVLTQSPGTLSLSPGERATLSCRASQSLYNNFLAWYQQKPGQAPRLLIYAASNRATGIPDRFSGSGSGTDFTLTISRLEPEDFAVYYCQQYGSSPGYTFGQGTKLEIKGGSSRSSQVQLVQSGAEVKKPGSSVKVSCKASGGTFSSYAISWVRQAPGQGLEWMGGIIPIFGTANYAQKFQGRVTITADESTSTAYMELSSLRSEDTAVYYCARTLRQYYYYGMDVWGQGTTVTVSSGSASAPTL
B4: ab23 (scFv, V domains shown)
VH: EVQLVQSGAEVKKPGSSVKVSCRSSGGTFSTYGITWVRQAPGQGLEWMGRIIPSLGIPNYAQKFQGRVTITADTSVSTAWMELSSLESDDTAIYYCARENIDLATNDFWGQGTLVTVSS
VL: QSALTQPPSASGSPGQSVTISCTGTSRDIGAYGYVSWYQQVPGKAPKLIIYEVRNRPSGVSSRFSGSKSGNTASLTISGLQAEDEADYYCSSYTSSSTLDVVFGGGTKLTVL
B5: ab14 (scFv, V domains shown)
VH: QVQLQQSGPGLVKPSQTLSLTCAISGDSVSSNSAAWNWIRQSPARGLEWLGRTYYRSRWYNDYAISMKSRITINPDTSKNQFSLQLESVTPEDTAVYYCAREIRGFDYWGQGTLVTVSS
VL: QSVLTQPPSASGSPGQSVTISCTGTSSDVGAYNFVSWYQHHPGKAPKLIIYDFNKRPSGVPDRFSGSKSGNTASLTVSGLQADDEADYYCSSYAGSNNFDVVFGGGTKLTVL
B6: ab19 (scFv, V domains shown)
VH: EVQLVESGAEVKKPGESLKISCKGSGYSFTSYWIGWVRQMPGKGLEWMGIIYPGDSDTRYSPSFQGQVTISADKSISTAYLQWSSLKASDTAMYYCARRGDLDAFDIWGQGTMVTVSS
VL: QPGLTQPPAASGTPGQRVTVSCSGASANIGSNAVSWFKQFPETAPRLLISGNTHRPSGVPDRVSGSKSGTSASLTISGLQSDDEADYYCAAWDDSLNGYVFGSGTKVTVL
B7: ab31 (scFv, V domains shown)
VH: EVQLVESGAEVKKPGESLKISCKGSGYTFTRYWIGWVRQMPGKGLEWMGIIYPGDLDTRYSPSFQGHVTISADKSISTAYLQWNSLKASDTAMYYCARLPQYCYKGVCKRWFDPWGQGTLVTVSS
VL: EIVLTQSPSSVSASVGDRVTITCRASQGIRSWLAWYQQKPGKAPKLLIYAASSLQSGVPSRFSGSGSGTDFTLTISSLQPEDFATYYCQQGHSVPYTFGQGTNLEIK
B8: ab47 (scFv, V domains shown)
VH: B7 VH with L56S, Y104Q, K105N, K109H
VL: B7 VL with S31N, H92D, S93Q, V94D, Y96L
B9: ab35 (scFv, V domains shown)
VH: B7 VH with L56A, Y104S, K105R, K109Q
VL: B7 VL with R30S, H92N, S93Q, V94F
B10: ab43 (scFv, V domains shown)
VH: B7 VH with L56S, Y104S, K105A, K109F
VL: B7 VL with R30S, V94F
B11: ab49 (scFv, V domains shown)
VH: B7 VH with L56S, Y104E, K105N, V107I
VL: B7 VL with H92D, S93Q, V94Y, Y96L
B12: ab33 (scFv, V domains shown)
VH: B7 VH with L56S, Y104R, K105A, V107K
VL: B7 VL with R30S, H92N, S93Q, V94Y
B13: ab45 (scFv, V domains shown)
VH: B7 VH with L56S, Y104S, K105S, K109Q
VL: B7 VL with R30S, H92N, S93Q, V94F
B14: ab34 (scFv, V domains shown)
VH: B7 VH with L56A, T58V, Y104R
VL: B7 VL with V94T
B15: ab32 (scFv, V domains shown)
VH: B7 VH with L56S, D57E, Y104R, K105R
VL: B7 VL with R30S, H92N, S93Q, V94L
B16: ab41 (scFv, V domains shown)
VH: B7 VH with L56N, T58V, Y104S, K105A, K109F
VL: B7 VL with R30S, S31N, H92Y, V94Y
B17: ab50 (scFv, V domains shown)
VH: B7 VH with L56A, T58V, Y104S, K105S, V107S, K109F
VL: B7 VL with R30S, H92Y, V94T
B18: ab46 (scFv, V domains shown)
VH: B7 VH with L56S, Y104S, K105S, K109H
VL: B7 VL with R30S, V94F
B19: ab40 (scFv, V domains shown)
VH: B7 VH with L56S, D57E, Y104R, K105S, K109Q
VL: B7 VL with R30S, H92N, S93Q
B20: ab44 (scFv, V domains shown)
VH: B7 VH with T58V, Y104R, K105E, V107K, K109H
VL: B7 VL with S31N, H92D, S93Q, V94D, Y96L
B21: ab42 (scFv, V domains shown)
VH: B7 VH with L56S, Y104Q, K105S
VL: B7 VL with H92D, S93Q, V94Y, Y96L
B22: ab48 (scFv, V domains shown)
VH: B7 VH with L56N, T58V, Y104D, V107I
VL: B7 VL with R30S, H92D, S93Q, V94L
B23: Anti-spike RBD Ab38 scFv (scFv)
scFv: ELQMTQSPSSLSASVGDRVTITCRASQSISSYLNWYQQKPGKAPKLLIYAASSLQSGVPSRFSGSGSGTDFTLTISSLQPEDFATYYCQQANSFPLTFGGGTKVEIKGGSSRSSQVQLVQSGAEVKKPGSSVKVSCKASGGTLSENGFSWVRQAPGQGLEWMGRIVPMFDISNYAERFQDRVTITADGSTNTAYMELRSLRLEDTAVYYCARDAVATSPGVYQHYGMDVWGQGTTVTVSSASTKGPSV
B24: Anti-spike RBD Ab36 scFv (scFv)
scFv: ELVMTQSPSSVSASVGDRVTITCRASQAIGSWLAWYQQKPGKAPKLLISSASSLQSGVPSRFSGSGSGTDFTLTISSLQPEDFATYYCQQLDSYPVTFGPGTKVDIKGGSSRSSEVQLLESGGGLIQPGGSLRLSCAASGLTVSSNYMSWVRQAPGKGLEWVSVIYSGGSTYYADSVKGRFTISRDNSKNTLYLQMNSLRAEDTAVYYCARAIDSGAFDIWGQGTMVTVSSGSASAPTL

Substitutions are numbered along the chain they refer to.

The target of the first assay is T1, purified 6× His-tagged SARS-CoV-2 spike protein (ELISA coat, Example 12) (SARS-CoV-2, UniProt P0DTC2 14-1213).
A word on the EC50: it is the midpoint of the concentration-response curve. B1 came in with an EC50 of 5.28 nM.

Molecule B2 yielded an EC50 of 8.85 nM. On the same count and under the same terms, to B3 belongs 4.93 nM.

In another assay the target is purified 6× His-tagged SARS-CoV-2 spike protein (ELISA coat, Example 12) (SARS-CoV-2, UniProt P0DTC2 14-1213).
With B4, the EC50 was 116 nM.

For the molecule B5, the response was half-maximal at 154 nM (EC50). The EC50 values of the last two molecules are within 1.5-fold of each other.

B6 yielded an EC50 of 24.2 nM. On to B7, for which the EC50 came to 40.4 nM. B8 returned an EC50 of 81.7 nM. B9: the concentration for a half-maximal effect (EC50) came out at 39 nM. On the same count and under the same terms, to B10 belongs 216 nM.

B11 had an EC50 of 234 nM. The EC50 values of the last two molecules are within 1.5-fold of each other.

Take B12: the response was half-maximal at 33.4 nM (EC50). The molecule B13 gave an EC50 of 37.3 nM. In the case of B14, the 50% effective concentration (EC50) was found to be 22.7 nM. Still for that read-out and setting: next, B15: 13.1 nM. As to B16, the EC50 worked out at 34.1 nM. This EC50 lies about 2.6-fold higher than the previous one.

B17 had an EC50 of 165 nM. Compared with the last molecule, the EC50 is about 4.8-fold higher. On the same count and under the same terms, to B18 belongs 106 nM; to B19, 40 nM. B20: the EC50 amounted to 28.2 nM. B21 returned an EC50 of 721 nM.

Molecule B22 had an EC50 of 1560 nM. Compared with the last molecule, the EC50 is about 2.2-fold higher.

Another assay concerns the target T1, purified 6× His-tagged SARS-CoV-2 spike …. The source holds these as a separate data set.
B23 came in with an EC50 of 10.6 nM.

Regarding B24, the EC50 is 31.2 nM. Same read-out and setting: next, B1: 5.18 nM.
